Each block holds one molecule with its values, some of them ahead of it.
Columns and labels:
[1] = target: cytochrome P450 17A1 (Homo sapiens) (UniProt P05093); test: surface plasmon resonance; details: cited from earlier work
[2] = target: human cytochrome b5 K24C, unlabeled (human) (UniProt P00167); test: SDS-PAGE with and without reducing agent; purified b5 variant run with or without β-mercaptoethanol (10%, v/v) or DTT; monomer at 17 kDa, dimer at 34 kDa; disulfide-linked dimer
[3] = target: human cytochrome b5 T70C, unlabeled (human) (UniProt P00167); test: as above
[4] = target: P450 17A1 peptide (putative b5 binding site of P450 17A1) (human); test: fluorescence polarisation; competition: nonlabeled WT b5 at various concentrations added to the complex of Alexa 488-b5 T70C (10 nM) and P450 17A1 peptide (100 μM)
[5] = target: P450 17A1 peptide (putative b5 binding site of P450 17A1) (human); test: fluorescence polarisation; competition: nonlabeled WT b5 at various concentrations added to the complex of Alexa 488-b5 K77C (10 nM) and P450 17A1 peptide (100 μM)
[6] = target: previously constructed Alexa 488-T70C-b5 (ref. 19; nonspecifically labelled) (human) (UniProt P00167); test: SDS-PAGE with and without reducing agent; purified b5 variant run with or without β-mercaptoethanol (10%, v/v) or DTT; monomer at 17 kDa, dimer at 34 kDa; disulfide-linked dimer
[7] = target: Alexa 488-labeled human cytochrome b5 T70C (singly labelled at Cys-70, this paper) (human) (UniProt P00167); test: fluorescence polarisation; P450 17A1 protein or P450 17A1 peptide added to Alexa 488-labeled b5 variant (10 nM) in 1 mM potassium phosphate buffer, pH 7.4, 384-well plate, 50 μl; anisotropy fitted with a quadratic equation
[8] = target: Alexa 488-labeled human cytochrome b5 K77C (human) (UniProt P00167); test: as above

stoichiometry N [2]: 2
Molecule: human cytochrome b5 K24C, unlabeled (from UniProt P00167 1-134) (natural protein)

IC50 [4]: 129 nM | IC50 [5]: 223 nM
Molecule: human cytochrome b5, WT, nonlabeled (from UniProt P00167 1-134) (natural protein)

stoichiometry N [6]: 2
Molecule: previously constructed Alexa 488-T70C-b5 (ref. 19; nonspecifically labelled) (from UniProt P00167 1-134) (natural protein)

Kd [7]: 113000 nM | Kd [8]: 52000 nM
Molecule: RNRLLLLEATIR [P450 17A1 peptide (putative b5 binding site of P450 17A1)]

The remaining lines, values behind:

Molecule: cytochrome b5 (from UniProt P00167)
Kd [1]: 440 nM

Molecule: human cytochrome b5 T70C, unlabeled (from UniProt P00167 1-134) (natural protein)
stoichiometry N [3]: 2

B1: human cytochrome P450 17A1 (steroid 17α-hydroxylase/17,20-lyase) (enzyme)
chain: MWELVALLLLTLAYLFWPKRRCPGAKYPKSLLSLPLVGSLPFLPRHGHMHNNFFKLQKKYGPIYSVRMGTKTTVIVGHHQLAKEVLIKKGKDFSGRPQMATLDIASNNRKGIAFADSGAHWQLHRRLAMATFALFKDGDQKLEKIICQEISTLCDMLATHNGQSIDISFPVFVAVTNVISLICFNTSYKNGDPELNVIQNYNEGIIDNLSKDSLVDLVPWLKIFPNKTLEKLKSHVKIRNDLLNKILENYKEKFRSDSITNMLDTLMQAKMNSDNGNAGPDQDSELLSDNHILTTIGDIFGAGVETTTSVVKWTLAFLLHNPQVKKKLYEEIDQNVGFSRTPTISDRNRLLLLEATIREVLRLRPVAPMLIPHKANVDSSIGEFAVDKGTEVIINLWALHHNEKEWHQPDQFMPERFLNPAGTQLISPSVSYLPFGAGPRSCIGEILARQELFLIMAWLLQRFDLEVPDDGQLPSLEGIPKVVFLIDSFKVKIKVRQAWREAQAEGST
Kd [7]: 379 nM | Kd [8]: 125 nM
